This is an account of results in PMC3894725 (Nature, 2012).

The data set deals with the molecule itself. Nature of the data set: crystal structure.

B1: human pyruvate kinase M2 (His6-hPKM2) (enzyme)
chain: not shown
A word on the stoichiometry N: it is a count of units in the complex or per binding partner. As for B1, the “stoichiometry N” value stood at 4.
